Measurements as given in paper PMC2905062.

Target: Axl receptor tyrosine kinase, wildtype (human)
Experiment: co-IP

A fold Grb2 co-IP'ed with Axl, rhGas6 stimulation against no stimulation of 2 fold was found for “endogenous growth factor receptor-bound protein 2 (Grb2) of COS7 cells (natural protein)” in this work.
